The target in assay [1] is Chaetomium thermophilum dynactin p150^Glued coiled-coil 1B, p150_(CC1B) (residues 478-680) (Chaetomium thermophilum). The experiment in a line: SEC-MALS; complexes of IC fragments (IC_(1-88)/IC_(100-260); IC_(1-88)/p150_(CC1B)) and p150_(CC1B) alone; Superdex 200; conditions not given. On the technique in general: Size exclusion chromatography separates by hydrodynamic size, large species first.

For assay [2] the target is unchanged. The experiment in a line: AUC; sedimentation equilibrium, dimer to monomers; three concentrations in the range 15-60 µM, 10,000, 14,000 and 18,000 rpm, 20°C; global fit to a monomer-dimer self-association model.
Assay [3] addresses Chaetomium thermophilum dynein intermediate chain IC_(100-260) (Chaetomium thermophilum). Nature of the assay: SEC-MALS; complexes of IC fragments (IC_(1-88)/IC_(100-260); IC_(1-88)/p150_(CC1B)) and p150_(CC1B) alone; Superdex 200; conditions not given.
The target in assay [4] is Chaetomium thermophilum dynactin p150^Glued coiled-coil 1B, p150_(CC1B) (residues 478-680) (Chaetomium thermophilum). The experiment in a line: ITC; IC construct in the syringe (200-400 µM) titrated into p150_(CC1B) or NudECC in the cell (20-40 µM); 25°C; 50 mM sodium phosphate pH 7.5, 50 mM NaCl, 1 mM sodium azide; two-step model for p150_(CC1B), one-site model for NudECC. On the technique in general: Isothermal titration calorimetry measures the heat released or taken up as one component is titrated into another.

Assay [5] addresses Chaetomium thermophilum nuclear distribution protein NudE coiled-coil, NudECC (residues 1-190) (Chaetomium thermophilum). Described as above.
Assay [6] has the same target. Nature of the assay: AUC; sedimentation equilibrium, dimer to monomers; three concentrations in the range 15-60 µM, 10,000, 14,000 and 18,000 rpm, 20°C; global fit to a monomer-dimer self-association model.

These results are taken from publication PMC9771362.

Usually stoichiometry N stands for the number of molecules, sites or subunits per partner or assembly. One may read the Kd as the concentration at which binding is half-saturated. A higher Kd goes with weaker binding. In assay [1], “Chaetomium thermophilum dynactin p150^Glued coiled-coil 1B, p150_(CC1B) (residues 478-680) (domain or fragment)” registered a stoichiometry N of 2. For the same substance, in assay [2], the Kd stood at 30 nM and the stoichiometry N is 2.

As for “Chaetomium thermophilum dynein intermediate chain IC_(1-88) (domain or fragment)”, the stoichiometry N (IC (1-88) chains per p150 (CC1B) dimer) in assay [1] came out at 2. For the same substance, the stoichiometry N in assay [3], in assay [4] and in assay [5] was 1 each time. Further, the N of each step (two-step binding model) in assay [4] came out at 0.5. Further, the dissociation constant Kd in assay [5] stood at 300 nM.

In turn, “Chaetomium thermophilum dynein intermediate chain IC_(37-88) (domain or fragment)” registered an equilibrium dissociation constant (Kd) in assay [4] of 20000 nM.

As for “Chaetomium thermophilum nuclear distribution protein NudE coiled-coil, NudECC (residues 1-190) (domain or fragment)”, in assay [6], the Kd is 200 nM and the stoichiometry N was 2.
